The numbers were not newly measured in patent US6713294B1, “DNA glycosylases and their use” (priority 1996, dated 2004), which cites them from elsewhere.

Data set [1] concerns imidazole ring-opened form of 7-methylguanine-DNA substrate. Conditions: Boiteux et al. (1990); cited from earlier work.
The subject of another data set is 3-methyladenine-DNA. Conditions: Bjelland et al. (1994); cited from earlier work.

B1: FPG protein: formamido-pyrimidine-DNA glycosylase (protein, UniProt P05523 2-269, looked up)
Formamidopyrimidine-DNA …: PELPEVETSRRGIEPHLVGATILHAVVRNGRLRWPVSEEIYRLSDQPVLSVQRRAKYLLLELPEGWIIIHLGMSGSLRILPEELPPEKHDHVDLVMSNGKVLRYTDPRRFGAWLWTKELEGHNVLTHLGPEPLSDDFNGEYLHQKCAKKKTAIKPWLMDNKLVVGVGNIYASESLFAAGIHPDRLASSLSLAECELLARVIKAVLLRSIEQGGTTLKDFLQSDGKPGYFAQELQVYGRKGEPCRVCGTPIVATKHAQRATFYCRQCQK
On to B1, for which, in data set [1], the “Kcat on imidazole ring-opened form of 7-methylguanine-DNA” value was 0.0233 s⁻¹.

B2: AlkA: Escherichia coli inducible 3-methyladenine-DNA glycosylase II (protein, UniProt P04395 1-282, looked up)
DNA-3-methyladenine …: MYTLNWQPPYDWSWMLGFLAARAVSSVETVADSYYARSLAVGEYRGVVTAIPDIARHTLHINLSAGLEPVAAECLAKMSRLFDLQCNPQIVNGALGRLGAARPGLRLPGCVDAFEQGVRAILGQLVSVAMAAKLTARVAQLYGERLDDFPEYICFPTPQRLAAADPQALKALGMPLKRAEALIHLANAALEGTLPMTIPGDVEQAMKTLQTFPGIGRWTANYFALRGWQAKDVFLPDDYLIKQRFPGMTPAQIRRYAERWKPWRSYALLHIWYTEGWQPDEA
Turning to B2, the “Turnover number on 3-methyladenine-DNA” value in the data set on 3-methyladenine-DNA is 0.03 min⁻¹.
